# Assay: yeast display, Sf9 membrane polyspecificity reagent, FACS + sequencing; frameworks hold sequencing errors
# In short: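 Sorting gates, low and high (top ~1%), were placed on anti-HA fluorescence to track expression and on streptavidin fluorescence to track reagent binding. A clone's polyreactivity label is taken from the gate it came out of. The reagent was 10% biotinylated, detergent-solubilized Sf9 membrane, applied for 1 hour at 4 °C to galactose-induced yeast display cells.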
row,Sequence,polyreactivity (PSR sort gate)
1,QVQLVESGGGLLQAGGSLRLSCAASGSIIFYYAMGWYRQAPGKEREFVAAITRSGVRTYYADSGKGRFTISRDNAKNTVYLQMNSLKPEDNAVYYCHADYGFYRPVLMGYWGQGTQVTVSS,low polyreactivity
2,QVQLVESGGGLLQAGGSLRLSCAASGSTFRAYTMGGYRPAPGKVREFVASITRSGGSTNYADSVKGRFTISRDNAKNTVYLQMNSLKPEDTAGYYCAAGYWRIHYQHFRSRDYWGQGTQVTVSS,high polyreactivity
3,QVQLVESGGGLLQAGGSLRLSCAASGSTFVTNDMGWYRPAPGKERELVAAISSGSSTNYADSVKGRFTISRDNAKNSVYVHMNSLKPEDTAVYYCAADSLKRYDYWGQGTQVTVSS,low polyreactivity
4,QVQLVESGGGLLQAGGSLRLSCAATGFIFWYYAMGWYRQAPGKEREFVADISSGGSTNYADSVKGRFTISRDNAKNTVYLQMNSLKPEDTAVYDCSKDNYPYHSTVLAVIYDYWGHGTQVTVSS,low polyreactivity
5,QVQLVESGGGLLQAGGSLRLSCADSGSILYTNAMGWYRQAPGKERELVAASTTSGASTIYADSVKGRFTISRENAKNTVYLQLNSLKPEDTAVYYCAAPSRYRYYLGNYWGQGTQVTVSS,high polyreactivity
6,QVQLVESGGGLLQAGGSLRLSCADSGSTFGANSLRWYIQAPGKEREFVAAISGSGTTTYYADSVKGRFTISRDNAKNTFYLQMHRLKPEDTAVYYCDKTRIAHWLEYWGQGTQVTVSS,low polyreactivity
7,QVQLVESGGGLLQAGGSLRLSCSASGFIFHYYARGLYRQAPGKDRELVAAIRSGGSTYYADSVKGRFTISRDNAKNTVYLQMNSLKPEHTEVYFCNGRFYSRGYRYYYWGQGTQVTVSS,high polyreactivity
8,QVQLVESGGGLLQAGGSLRLTCAASGSIFRYYSMGWYRQAPGKERELVASINSCGSTYYADSVKGRFTISRDNAKNTVYLQMKSLKPEDSAVYYCAAETSFYYRGYWKSYDYWGQGTQVTVSA,high polyreactivity
9,QVQLVESGGGLLQAGGSLSLSCAASGGIFYYNAMGRYRQAPRKERELVAANTFSGGSTNYADSVKGRFTISRDNAKNTVYLQMNSLKPEDTAVYYGNARRGYGGGYDYWGQGTQVTVSS,high polyreactivity
10,QVQLVESGGGLLQAGGSLSLSSAASGITCDLYDMGWYRQAPGKERELVAAITDAHSTYYADSVKGRFTNSRDYAKNTVYLQMNSLKPEDTAVYYCAADWYLYLDDKYDYWGQGTQVTVSS,low polyreactivity
11,QVQLVESGGGLLRAGGSLRLICADSAFVNYVMGWYRQAPGKERELVAAISKGGGRTYYADSVKGRFTISRDNAKNTVYLQMNSLKPEVTAVYYCNADGGLPKYDYWGQGTQVTVSS,high polyreactivity
12,QVQLVESGGGLVEAGGSLRLICAASGFIFLSNGMGWYRQGPGKERELVAAISSSGGSTYYADSVKGRFTISRDNAKNTVYLQMNSLKPEDTAVYYCAAEQYSVYETGSYDYWGQGTQVTVSS,low polyreactivity
13,QVQLVESGGGLVEAGGSLRLSCAASGGIFKIYSMGWYIQAPGKERELVAGINWSDTGTYYADSVKGRFTISRDNAKNTVYLQMNSLKPEDTAVYYCAVSGYPVYITYVSYDYDYWGQGTQVNVSS,low polyreactivity
14,QVQLVESGGGLVEAGGSLRLSCAASGGTFKLYAMGWYRPAPGKERELVAAISRRGGSTYYADSVKGRFTISRDNAKNTVYLQMNSLKPDDTALSNCAAPGPTQSTQRGGYWGQGTQVTVSS,high polyreactivity
15,QVQLVESGGGLVEAGGSLRLSCAASGGTFLRYAMGWSIQAPGKERELVAAITYRNGRTYYADSVKGRFTISRDNAKNTVYLQMNSLKPEDTAVYYCAADSTPRGNPAYDYYYWGQGTQVTVSS,high polyreactivity
16,QVQLVESGGGLVEAGGSLRLSCAASGRIFGRNAMGWYRQAPGKERELVAGISSGGTTDYADSVKGRFTISRDNAKNTVYLQMNSLKPEDTAVYYCNVGYAYDDQTYYLGESDYWGQGTQVTVSS,low polyreactivity
17,QVQLVESGGGLVEAGGSLRLSCAASGRIFRYNAMGWYRQAPGKEWELVAAITASGGRTYYADSVKGRFTISRDNAKNTVYLQMNSLKPDDTAVYYCAATAFDKLKVWYSYWRQGTQVTVSS,high polyreactivity
18,QVQLVESGGGLVEAGGSLRLSCAASGRIFTYYAMGWYRQAPGKERELVASISRSGGNTYYADSVKGRFTISRDNAKNTVYLQMNSLKPEDTAVYYCDAVYSRLDYWGQGTQVTVSS,high polyreactivity
19,QVQLVESGGGLVEAGGSLRLSCAASGRTFDYNAMGWYRQAPGKERELVAAISRGGSTYYADSVKGRFTISRDNPNNSVYLQMNSLKPEDTAVYYCAALYVRVGYDYWGQGTQVTVSS,high polyreactivity
20,QVQLVESGGGLVEAGGSLRLSCAASGRTFRYYAMGWYRQAPGKVREFVAAISTSGGRTYYADSVKGRFTISRDNAKNTVYLQMNSLKPEDTAVYYCAAVSAPRFGMDYLGQGTQVTVSS,high polyreactivity
21,QVQLVESGGGLVEAGGSLRLSCAASGSIFARYAMGWTRQAPGKERELVAAITSRGGSTYADSVKGRFTISRDNAKNTVFLQMISLIPEDTAVYYCAAATLWYYRYWTSYDYWGQGTQVTVSS,high polyreactivity

row,Sequence,polyreactivity (PSR sort gate)
1,QVQLVESGGGLVEAGGSLRLSCAASGSTFGVNAMGWSRQAPGKERELVAVITRSGGSTYYADSVKGRFTISRDNAKNTVYLQMNSLKPEDTAVYYCAKSGVVDWGQGTQVTVSS,low polyreactivity
2,QVQLVESGGGLVHAGASLRLSCAASGLTFRKYAKGWYRQAPGKERELVAAITGSGGRTYYADSVKGRFTISRDNAKNTVYLQMNSLQPEDTAVYYCAADDYFHDDYWGQGTQVTVSS,high polyreactivity
3,QVQLVESGGGLVHAGCSLPLTCAASGSTLDANAMGSYRQAPGKEMELVAAISSGGITYYADSVKGRFTFSRDNAKSTVYLQMNCLKPEDTAGYYCANRGQGFQFGRDYWGQGTQVTVSS,low polyreactivity
4,QVQLVESGGGLVHAGGRLRLSCAASGRTLAPYAMGWYRQAPGKERELVADIDRGGGSTYYADSVTGRFTISRDNAKNTVYLQMNSVKPEDTAVYYCYVDETGVLVAYTFDYWGQGTQVTVSS,low polyreactivity
5,QVQLVESGGGLVHAGGRLRLSCDASGSLFFWNTMGWYRQAPGKQRQLVAAITVSGGRTYYADSVKGRFTISRDNAKNSFYLQMYSLKPEDTAVYYCAADPYRLYGYASYTYWGQGTQVTVSS,high polyreactivity
6,QVQLVESGGGLVHAGGSHRLSCAASGLIFRRNPMGWYRQAPGKERELVAAISRTGGSTYYADSVKGSFTISRDNAKNTFYLQMNSMKPEYTAVYYCASDNRDYDYTYEYWGQGTQVTVSS,low polyreactivity
7,QVQLVESGGGLVHAGGSLGLICAASGFIFYRYAMGWYRQAPGKERELVAAISWSGGTTYYADSVKGRFSISRDNAKNTVYLQMNSLKPEDTAVYYCAATRLRTEYYWGHGTQVTVSS,high polyreactivity
8,QVQLVESGGGLVHAGGSLLLSCSASRSIFDLYAMGGYRQAPGKERELVADISIADSTNYADSVKGRFTISRDNAKNTVYLKMNSLKPEDTAVYYCKDDVWWYCYEYDYWGQGTEVTVSS,low polyreactivity
9,QVQLVESGGGLVHAGGSLPLSCAASGRIFPGYAMRWYRQAPGKEREFVAAIRGTGTSTYYADSVKGRFTISRDNAKNTVYLQMNSLKPEDTAVYYCAASAGYAYNYWGQGTQVTVSS,low polyreactivity
10,QVQLVESGGGLVHAGGSLRLSCAASGFIFWRYAMGWYRQAPGKERELVATITSSGGTTHYADSVKGRFTISRDNAKNTVYLQMNSLKPEDTAVFYCATRNGVGSLFYSRNYWGQGTQVSVSS,high polyreactivity
11,QVQLVESGGGLVHAGGSLRLSCAASGFTFFKYAKGWYRQAPGKERELVATISIDGITNYADSVKGRFTISRHNAKNTVYLQMNSLKPEDTAVYYCHARSLYQQLGYWGQGTQVTVSS,low polyreactivity
12,QVQLVESGGGLVHAGGSLRLSCAASGFTFSYNARGWYRQAPGKERELVASITRSGGRTYYADSVKGRFTISRDNAKNTVYLQMNSLKPEDTGVYYCAAVWYPWLSSIFDYWGQGTQVTVSS,high polyreactivity
13,QVQLVESGGGLVHAGGSLRLSCAASGFTFYKNAMGWYRQAPGKERELVAAISADGGRTYYADSVKGRFTISRDNAKNTVYLQMNSLKPEDTGVYYCNARARRYTRLRWYAYVSDNDYWGQGTQVTVSS,high polyreactivity
14,QVQLVESGGGLVHAGGSLRLSCAASGFTSYENAMGWYRQAPGKEREFVAAISYIAGNTYYSDSVKGRFTISRDNAKNTVYLQMNSLKPEDTAVYYCAKTKYILPGNAYVNYDTTAYDYWGQGTQVTVSS,low polyreactivity
15,QVQLVESGGGLVHAGGSLRLSCAASGIILDYNAMGWYRQAPGKERELVAAITWSGSSTFYADTVKGRYTISHDNSKNTVYLQMNSLKPEDTAVYYCNADYFWGTYANFDYWGQCTQVTVSS,low polyreactivity
16,QVQLVESGGGLVHAGGSLRLSCAASGITFSRNTMGWYRQAPGKERELVAAITLRGGGRTYYADSVKGRFTISRDNAKNTVYLQMISLKPEDTAVYYCAARYLVTFGHQQRYFYWGQGTHVTVSS,high polyreactivity
17,QVQLVESGGGLVHAGGSLRLSCAASGITFYLYTMGWYRQAPGKERELVATITSGASTSYADSVKGRFTISRDNAKNTFYLQMNSLNPEDTAVYYCAARRTRVTGRYSVYAFDYWGQGTQVTVSS,low polyreactivity
18,QVQLVESGGGLVHAGGSLRLSCAASGLIFPRYAMGSYRQAPGKERELVAAISRSGGNTYYADSVKGRFTISRDNAKNTVYLQMNSLKPEDTAVYYCAAYFSTAPKSQYKLDYWGQGTQVTVSS,high polyreactivity
19,QVQLVESGGGLVHAGGSLRLSCAASGLIFYDNMGWYRQAPGKERELVAAISSSGGSTSYADSVKGRFTISRDNAKNTVYLQMNSLKPEDTAVYYCAAVSGPFVQTSGNGEYDYWGQGTQVTVSS,low polyreactivity
20,QVQLVESGGGLVHAGGSLRLSCAASGLTFVNYAMGWYRQAPGKERELVATISKTGGSTYYADSVKGRFTISRDNAKNTVFLQMNSLKPEDTAVYYCAVDAYYYKWYDYWGQGTQVSVSS,high polyreactivity

# — the nanobody polyreactivity screen of Harvey et al. (2022)
